# Biological target: T1, CD3ε homodimer protein (human, UniProt P07766 23-126, limits assumed)
# T1 construct: also called CD3 (CD3ε)
# Test: SPR Biacore T200, CD3ε homodimer on chip;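 note: Light-chain single-residue variant antibodies injected over amine-coupled CD3ε homodimer on a CM4 chip at 25 °C, bound amount divided by that of the GLS3000-containing antibody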
# T1 sequence (P07766 23-126 limits assumed): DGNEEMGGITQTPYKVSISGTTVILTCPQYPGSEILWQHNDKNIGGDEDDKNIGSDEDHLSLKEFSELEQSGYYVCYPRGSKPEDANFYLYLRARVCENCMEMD
row,Binder,ratio of amount bound vs unaltered GLS3000
1,"GLS3000 N28Q one-arm antibody (antibody, human IgG1, kappa, L234A L235A, N297A, name in Kabat numbering) heavy: QVQLVESGGGVVQPGRSLRLSCAASGFTFSNAWMHWVRQAPGKGLEWVAQIKAKSNNYATYYAESVKGRFTISRDDSKNSLYLQMNSLKTEDTAVYYCRYVHYGAYYGVDAWGQGTTVTVSSASTKGPSVFPLAPSSKSTSGGTAALGCLVKDYFPEPVTVSWNSGALTSGVHTFPAVLQSSGLYSLSSVVTVPSSSLGTQTYICNVNHKPSNTKVDKKVEPKSCDKTHTCPPCPAPEAAGGPSVFLFPPKPKDTLMISRTPEVTCVVVDVSHEDPEVKFNWYVDGVEVHNAKTKPREEQYASTYRVVSVLTVLHQDWLNGKEYKCKVSNKALPAPIEKTISKAKGQPREPQVYTLPPSRCELTKNQVSLSCAVKGFYPSDIAVEWESNGQPENNYKTTPPVLDSDGSFFLVSKLTVDKSRWQQGNVFSCSVMHEALHNHYTQKSLSLSPDYKDDDDK EPKSSDKTHTCPPCPAPELLGGPSVFLFPPKPKDTLMISRTPEVTCVVVDVSHEDPEVKFNWYVDGVEVHNAKTKPREEQYNSTYRVVSVLTVLHQDWLNGKEYKCKVSNKALPAPIEKTISKAKGQPREPQVCTLPPSRDELTKNQVSLWCLVKGFYPSDIAVEWESNGQPENNYKTTPPVLDSDGSFFLYSKLTVDKSRWQQGNVFSCSVMHEALHNRYTQKSLSLSP light: DIVMTQSPLSLPVTPGEPASISCRSSQSLVHSQRNTYLHWYQQKPGQAPRLLIYKVSNRFSGVPDRFSGSGSGTDFTLKISRVEAEDVGVYYCGQGTQVPYTFGQGTKLEIKRTVAAPSVFIFPPSDEQLKSGTASVVCLLNNFYPREAKVQWKVDNALQSGNSQESVTEQDSKDSTYSLSSTLTLSKADYEKHKVYACEVTHQGLSSPVTKSFNRGEC",0.37
2,"GLS3000 N28T one-arm antibody (antibody, human IgG1, kappa, L234A L235A, N297A, name in Kabat numbering) heavy: QVQLVESGGGVVQPGRSLRLSCAASGFTFSNAWMHWVRQAPGKGLEWVAQIKAKSNNYATYYAESVKGRFTISRDDSKNSLYLQMNSLKTEDTAVYYCRYVHYGAYYGVDAWGQGTTVTVSSASTKGPSVFPLAPSSKSTSGGTAALGCLVKDYFPEPVTVSWNSGALTSGVHTFPAVLQSSGLYSLSSVVTVPSSSLGTQTYICNVNHKPSNTKVDKKVEPKSCDKTHTCPPCPAPEAAGGPSVFLFPPKPKDTLMISRTPEVTCVVVDVSHEDPEVKFNWYVDGVEVHNAKTKPREEQYASTYRVVSVLTVLHQDWLNGKEYKCKVSNKALPAPIEKTISKAKGQPREPQVYTLPPSRCELTKNQVSLSCAVKGFYPSDIAVEWESNGQPENNYKTTPPVLDSDGSFFLVSKLTVDKSRWQQGNVFSCSVMHEALHNHYTQKSLSLSPDYKDDDDK EPKSSDKTHTCPPCPAPELLGGPSVFLFPPKPKDTLMISRTPEVTCVVVDVSHEDPEVKFNWYVDGVEVHNAKTKPREEQYNSTYRVVSVLTVLHQDWLNGKEYKCKVSNKALPAPIEKTISKAKGQPREPQVCTLPPSRDELTKNQVSLWCLVKGFYPSDIAVEWESNGQPENNYKTTPPVLDSDGSFFLYSKLTVDKSRWQQGNVFSCSVMHEALHNRYTQKSLSLSP light: DIVMTQSPLSLPVTPGEPASISCRSSQSLVHSTRNTYLHWYQQKPGQAPRLLIYKVSNRFSGVPDRFSGSGSGTDFTLKISRVEAEDVGVYYCGQGTQVPYTFGQGTKLEIKRTVAAPSVFIFPPSDEQLKSGTASVVCLLNNFYPREAKVQWKVDNALQSGNSQESVTEQDSKDSTYSLSSTLTLSKADYEKHKVYACEVTHQGLSSPVTKSFNRGEC",0.45
3,"GLS3000 N28V one-arm antibody (antibody, human IgG1, kappa, L234A L235A, N297A, name in Kabat numbering) heavy: QVQLVESGGGVVQPGRSLRLSCAASGFTFSNAWMHWVRQAPGKGLEWVAQIKAKSNNYATYYAESVKGRFTISRDDSKNSLYLQMNSLKTEDTAVYYCRYVHYGAYYGVDAWGQGTTVTVSSASTKGPSVFPLAPSSKSTSGGTAALGCLVKDYFPEPVTVSWNSGALTSGVHTFPAVLQSSGLYSLSSVVTVPSSSLGTQTYICNVNHKPSNTKVDKKVEPKSCDKTHTCPPCPAPEAAGGPSVFLFPPKPKDTLMISRTPEVTCVVVDVSHEDPEVKFNWYVDGVEVHNAKTKPREEQYASTYRVVSVLTVLHQDWLNGKEYKCKVSNKALPAPIEKTISKAKGQPREPQVYTLPPSRCELTKNQVSLSCAVKGFYPSDIAVEWESNGQPENNYKTTPPVLDSDGSFFLVSKLTVDKSRWQQGNVFSCSVMHEALHNHYTQKSLSLSPDYKDDDDK EPKSSDKTHTCPPCPAPELLGGPSVFLFPPKPKDTLMISRTPEVTCVVVDVSHEDPEVKFNWYVDGVEVHNAKTKPREEQYNSTYRVVSVLTVLHQDWLNGKEYKCKVSNKALPAPIEKTISKAKGQPREPQVCTLPPSRDELTKNQVSLWCLVKGFYPSDIAVEWESNGQPENNYKTTPPVLDSDGSFFLYSKLTVDKSRWQQGNVFSCSVMHEALHNRYTQKSLSLSP light: DIVMTQSPLSLPVTPGEPASISCRSSQSLVHSVRNTYLHWYQQKPGQAPRLLIYKVSNRFSGVPDRFSGSGSGTDFTLKISRVEAEDVGVYYCGQGTQVPYTFGQGTKLEIKRTVAAPSVFIFPPSDEQLKSGTASVVCLLNNFYPREAKVQWKVDNALQSGNSQESVTEQDSKDSTYSLSSTLTLSKADYEKHKVYACEVTHQGLSSPVTKSFNRGEC",0.36
4,"GLS3000 N28S one-arm antibody (antibody, human IgG1, kappa, L234A L235A, N297A, name in Kabat numbering) heavy: QVQLVESGGGVVQPGRSLRLSCAASGFTFSNAWMHWVRQAPGKGLEWVAQIKAKSNNYATYYAESVKGRFTISRDDSKNSLYLQMNSLKTEDTAVYYCRYVHYGAYYGVDAWGQGTTVTVSSASTKGPSVFPLAPSSKSTSGGTAALGCLVKDYFPEPVTVSWNSGALTSGVHTFPAVLQSSGLYSLSSVVTVPSSSLGTQTYICNVNHKPSNTKVDKKVEPKSCDKTHTCPPCPAPEAAGGPSVFLFPPKPKDTLMISRTPEVTCVVVDVSHEDPEVKFNWYVDGVEVHNAKTKPREEQYASTYRVVSVLTVLHQDWLNGKEYKCKVSNKALPAPIEKTISKAKGQPREPQVYTLPPSRCELTKNQVSLSCAVKGFYPSDIAVEWESNGQPENNYKTTPPVLDSDGSFFLVSKLTVDKSRWQQGNVFSCSVMHEALHNHYTQKSLSLSPDYKDDDDK EPKSSDKTHTCPPCPAPELLGGPSVFLFPPKPKDTLMISRTPEVTCVVVDVSHEDPEVKFNWYVDGVEVHNAKTKPREEQYNSTYRVVSVLTVLHQDWLNGKEYKCKVSNKALPAPIEKTISKAKGQPREPQVCTLPPSRDELTKNQVSLWCLVKGFYPSDIAVEWESNGQPENNYKTTPPVLDSDGSFFLYSKLTVDKSRWQQGNVFSCSVMHEALHNRYTQKSLSLSP light: DIVMTQSPLSLPVTPGEPASISCRSSQSLVHSSRNTYLHWYQQKPGQAPRLLIYKVSNRFSGVPDRFSGSGSGTDFTLKISRVEAEDVGVYYCGQGTQVPYTFGQGTKLEIKRTVAAPSVFIFPPSDEQLKSGTASVVCLLNNFYPREAKVQWKVDNALQSGNSQESVTEQDSKDSTYSLSSTLTLSKADYEKHKVYACEVTHQGLSSPVTKSFNRGEC",0.32

# — patent publication US20260049138A1 (Chugai, published 2026)
